Assay: soluble on expression in E. coli; label from the status in PepcDB or PDB records
For “RSFGLIIPDLENTSYARLAKLIEQNSRKAGYQILIGCSDDDPETEKKVAEALISRRIDALFVASGMPSANEYYLKLQNSGTPVIALDRPMDDEHFCCVISEDFDAAFELTESVLSPEIKTIGLIGALQDLQVSKERELGFRSACQKDDTAMTVGYGLHFSREEGKKVLDKWVQADSLPDAIVTTSYTLLEGVLDVMLEKPELMSQVRLATFGDNRLLDFLPVKINSLPQQFELIADSAMELALNASAKRYKPGVELIPRKIVKRQ”, the “soluble on expression in E. coli” value was “not soluble”.
For “RSVRVLVDMDGVLADFEAGLLRGFRRRFPEEPHVPLEQRRGFLAREQYRALRPDLADKVASVYEAPGFFLDLEPIPGALDAVREMNDLPDTQVFICTSPLLKYHHCVGEKYRWVEQHLGPQFVERIILTRDKTVVLGDLLIDDKDTVRGQEETPSWEHILFTCCHNRHLVLPPTRRRLLSWSDNWREILDSKR”, the “soluble on expression in E. coli” value was “soluble”.
For “RTDNLGLAPYGRVDLSGGSFGTFRRSVKLGSGRIGRHWAVDARLSKIGSDGYVDRGSVDLKSYFAQVGYFGSNTALRFITFGGKEVTGIAWNGLSKEDEAKYGRRYNSAGLMYVDAQGVPHYYHNTDNYEQRHYHAIMTHSFSPSVILNLTAHYTAGYGYTDEYRTGRKLKEYALQPYVENSVTVKKTDLIRQKYLDNDFGGLIGSLNWHTGAWDLQFGASGNIYKGDHFGRITYIKKYNQPLAPDFEYYRNRADKREGAAFAKANWQITPELNMYADLQYRTIGYTINGITDEYDEVQGSMQHIDLDKTFRFLNPKAGLTYSFDDAHTAYASVAVAHREPNRTNYTEAGIGQYPTPERLIDYELGYRYASPLLSAGVGLYYMQYKDQLVLDGRLSDVGQMLTSNVPDSYRMGLELTLGWQILPRLLRWDASFTMSRNKIDRYVQYTSVYDADYNWLELKEETLESTDIAYSPNVIAGSMLTLSHAGFEMAWTSRFVSKQYLDNTQRSDRMLSSYWVNDLRLGYVLPVHFVKRVALGVQLNNLFNLMYASNAYIYDAGYVQASGELSAYADLRYYPQAGFNALGSLTIDF”, the “soluble on expression in E. coli” value was “not soluble”.
For “RVETQPEVQLPGPAPNLRAYAASPTSITVTWETPVSGNGEIQNYKLYYMEKGTDKEQDVDVSSHSYTINGLKKYTEYSFRVVAYNKHGPGVSTPDVAVRTLSD”, the “soluble on expression in E. coli” value was “soluble”.
With “RVTVMLAAFEGWNDAGEAASDALHYLNKLWDGKKVATVDAEEYYDFQFTRPTVRRTSSGARKVKWPSTRIYKAEVPDSNVDVVLVLGTEPSYRWRAYTTELLVHAEALKVDSVILVGALLADVPHSRPIPVSTTTEDSSLRERLNLEASQYEGPVGIVGVLAEFAMLAGLPTVSLWAAVPHYVAQPPSPKAQLAILHRIEDLLQVPLDSQALAEESEAWERGVDELATEDPEITAYVRQLEEAKDTADLPE” the “soluble on expression in E. coli” value was “not soluble”.
With “SAADLGQIPDVDIDSDGVFKYVLIRVHLAEPSGDPAKECKEIVRGYKWAEYHADIYDKVSGELQRNGYDCECLGGGRISHQSQDRKIHVYGYSMGYGRAQHSVSTEKIKAKYPDYEVTWADDGY” the “soluble on expression in E. coli” value was “soluble”.
With “SAAEEEDEVEWVVESIAGFLRGPDWSIPILDFVEQKCEVFDDEEESKLTYTEIHQEYKELVEKLLEGYLKEIGINEDQFQEACTSPLAKTHTSQAILQPVLAAEDFTIFKAMMVQKNIEMQLQAIRIIQERNGVLPDCLTDGSDVVSDLEHEEMKILREVLRKSKEEYDQEEERKRKKQLSEAKTEEPTVHSSEAAIMNNSQGDGEHFAHPPSEVKMHFANQSIEPLGRKVERSETSSLPQKGLKFPGLEHASIEGPIANLSVLGTEELRQREHYLKQKRDKLMSMRKDMRTKQIQNMEQKGKPTGEVEEMTEKPEMTAEEKQTLLKRRLLAEKLKEEVINK” the “soluble on expression in E. coli” value was “soluble”.
In the case of “SAAKALKDLKNLPVSERNIDYKTKLLVGKMNGTAEDKPPQNSVPFDHNHPKGDEIEKPEAERVIVEIEYIESKDLNNVTQVDAVLKSLVTELDSKDWVLVCDALNTIRRLSIFHKEEMLHMLEKVILFIVKSLKNPRSAVSKTACMTSADIFSSYNDHTIDQLDLLLTQLLLKSSQDKRFVCEAAEKALVAMTAHVSPALLLPKLQPFLKNRNPRIRAKASTCFSRCVPRLGIEGIREYGIEKLVQAASSQLSDQLPESREAARAVLLELQTVYKKTTNVEPKEEHPEPVTWQIFCQSNLSPLSAQAVIRVTNVAGVAREGLVAGS”, the “soluble on expression in E. coli” value is reported as “soluble”.
For “SAAPMSNVDEIRDRVILGEFGVKNVHTTDYPGNYPGYDDTWDFEKFKKNFRIEIISSDENTLEFDMIGIDAAIANAFRRILLAEVPTMAIEKVFIYNNTSIIQDEILAHRLGLVPIKADPRLFEYRNSEDQEGTEIDTIQLQLKVKCTRNPRAPKDSSDPKELYLNHMIYSGDIKWLPIGNQADVFADAKIGPVHGDILLAQVRPGQELDIVMHCVKGIGKDHAKFSPVATASYRLLPEITLLQTIEGEQAERLKRCFSPGVIELENVNGRKVAKVVNSRLDTCSREVLRHDDLKSLVKLGRVRDHFIFSVESTGILPPDVLVTEAINVLMSKCQKFLTELEATEMD”, the “soluble on expression in E. coli” value was “soluble”.
With “SADEEEEVKPILQKLQELVDQLYSFRDCYFETHSVEDAGRKQQDVRKEMEKTLQQMEEVVGSVQGKAQVLMLTGKALNVTPDYSPKAEELLSKAVKLEPELVEAWNQLGEVYWKKGDVAAAHTCFSGALTHCRNKVSLQNLSMVLRQLRTDTEDEHSHHVMDSVRQAKLAVQMDVHDGRSWYILGNSYLSLYFSTGQNPKISQQALSAYAQAEKVDRKASSNPDLHLNRATLHKYEESYGEALEGFSRAAALDPAWPEPRQREQQLLEFLDRLTSLLESKGKVKTKKLQSMLGSLRPAHLGPCSDGHYQSASGQKVTLELKPLSTLQPGVNSGAVILGKVVFSLTTEEKVPFTFGLVDSDGPCYAVMVYNIVQSWGVLIGDSVAIPEPNLRLHRIQHKGKDYSFSSVRVETPLLLVVNGKPQGSSSQAVATVASRPQCE” the “soluble on expression in E. coli” value was “soluble”.
With “SADSEADKPLRKISAAFKKLAIIVNSPNPEVPVTQFSHACSLVSPLFGCLGIAFKFAEMDYVAKVDDLVRASSSISTLVVMMDKDIEADCVRKAGSHTRNLLRVKRGLDMVKVLFEQIIASEGDNSLKDPATKSYAQVFAPHHGWAIRKAVSLGMYALPTRAHLLNMLKEDEAAAKIHMQSYVNSSAPLITYLDNLFLSKQLGIDW” the “soluble on expression in E. coli” value was “soluble”.
For “SAKGGKGPKGKKITLNVAKNCIKITFDGRKRLDLSKMGITTFPKCILRLSDIDELDLSRNMIRKIPDSIAKFQNLRWLDLHSNYIDKLPESIGQMTSLLFLNVSNNRLTTNGLPVELNQLKNIRTVNLGLNHLDSVPTTLGALKELHEVGLHDNLLTTIPASIAKLPKLKKLNIKRNPFPNADESEMFVDSIKRLENLYLVEEKDMCSSCLQRCQQARDKLNKIKSMAPSAPRKALFSNLVSPNSTAKDAQEEWR”, the “soluble on expression in E. coli” value was “soluble”.
With “SANAEVSVPVGDVVVVPTEGNEGENPEDTKTQVILQLQPVQQGIYEAGSENNTAVVAVETHTIHKIEEGIDTGTIEANEDMEIAYPITCGESKAILLWKKFVCPGINVKCVKFNDQLISPKHFVHLAGKSTLKDWKRAIRLGGIMLRKMMDSGQIDFYQHDKVCSNTCRSTKFDLLISSARAPVPGQQTSVVQTPTSADGSITQIAISEESMEEAGLEWNSALTAAVTMATEEGVKKDSEEISEDTLMFWKGIADVGLMEEVVCNIQKEIEELLRGVQQRLIQAPFQVTDAAVLNNVAHTFGLMDTVKKVLDNRRNQVEQGEEQFLYTLTDLERQLEEQKKQGQDHRLKSQTVQNVVLMPVSTPKPPKRPRLQRPASTTVLSPSPPVQQPQFTVISPITITPVGQSFSMGNIPVATLSQGSSPVTVHTLPSGPQLFRYATVVSSAKSSSPDTVTIHPSSSLALLSSTAMQDGSTLGNMTTMVSPVELVAMESGLTSAIQAVESTSEDGQTIIEIDPAPDPEAEDTEGKAVILETELRTEEKVVAEMEEHQHQVHNVEIVVLED” the “soluble on expression in E. coli” value was “soluble”.
